B1: Cdc11(E294C)-capped, otherwise Cys-less septin hetero-octamer (Cdc11-Cdc12-Cdc3-Cdc10-Cdc10-Cdc3-Cdc12-Cdc11) (complex, S. cerevisiae)
chain 1: MSGIIDASSALRKRKHLKRGITFTVMIVGQSGSGRSTFINTLFGQQVVDTSTTILLPTDTSTEIDLQLREETVELEDDEGVKIQLNIIDTPGFGDSLDNSPSFEIISDYIRHQYDEILLEESRVRRNPRFKDGRVHAALYLINPTGHGLKEIDVEFIRQLGSLVNIIPVISKSDSLTRDELKLNKKLIMEDIDRWNLPIYNFPFDEDEISDEDYETNMYLRTLLPFAIIGSNEVYEMGGDVGTIRGRKYPWGILDVEDSSISDFVILRNALLISHLHDLKNYTHEILYERYRTCALSGESVAAESIRPNLTKLNGSSSSSTTTRRNTNPFKQSNNINNDVLNPASDMHGQSTGENNETYMTREEQIRLEEERLKAFEERVQQELLLKRQELLQREKELREIEARLEKEAKIKQEE
chain 2: MSAATATAAPVPPPVGISNLPNQRYKIVNEEGGTFTVMLAGESGLGKTTFINTLFQTVLKRADGQQHRQEPIRKTVEIDITRALLEEKHFELRVNVIDTPGFGDNVNNNKAWQPLVDFIDDQHDSYMRQEQQPYRTKKFDLRVHAVLYFIRPTGHGLKPIDIETMKRLSTRANLIPVIAKADTLTAQELQQFKSRIRQVIEAQEIRIFTPPLDADSKEDAKSGSNPDSAAVEHARQLIEAMPFAIVGSEKKFDNGQGTQVVARKYPWGLVEIENDSHSDFRKLRALLLRTYLLDLISTTQEMHYETYRRLRLEGHENTGEGNEDFTLPAIAPARKLSHNPRYKEEENALKKYFTDQVKAEEQRFRQWEQNIVNERIRLNGDLEEIQGKVKKLEEQVKSLQVKKSHLK
chain 3: MSLKEEQVSIKQDPEQEERQHDQFNDVQIKQESQDHDGVDSQYTNGTQNDDSERFEAAESDVKVEPGLGMGITSSQSEKGQVLPDQPEIKFIRRQINGYVGFANLPKQWHRRSIKNGFSFNLLVVGPDGIGKTTLMKTLFNNDDIEANLVKDYEEELANDQEEEEGQGEGHENQSQEQRHKVKIKSYESVIEENGVKLNLNVIDTEGFGDFLNNDQKSWDPIIKEIDSRFDQYLDAENKINRHSINDKRIHAVLYFIEPTGHYLKPLDLKFMQSVYEKVNLIPVIAKSDILTDEEILSFKKTIMNQLIQSNIELFKPPIYSNDDAENSHLSERLFSSLPYAVIGSNDIVENYSGNQVRGRSYPWGVIEVDNDNHSDFNLLKNLLIKQFMEELKERTSKILYENYRSSKLAKLGIKQDNSVFKEFDPISKQQEEKTLHEAKLAKLEIEMKTVFQQKVSEKEKKLQKSETELFARHKEMKEKLTKQLKALEDKKKQLELSINSASPNVNHSPVPTKKKGFLR
chain 4: MDPLSSVQPASYVGFDTITNQIEHRLLKKGFQFNIMVVGQSGLGKSTLINTLFASHLIDSATGDDISALPVTKTTEMKISTHTLVEDRVRLNINVIDTPGFGDFIDNSKAWEPIVKYIKEQHSQYLRKELTAQRERFITDTRVHAILYFLQPNGKELSRLDVEALKRLTEIANVIPVIGKSDTLTLDERTEFRELIQNEFEKYNFKIYPYDSEELTDEELELNRSVRSIIPFAVVGSENEIEINGETFRGRKTRWSAINVEDINQSDFVYLREFLIRTHLQDLIETTSYIHYEGFRARQLIALKENANSRSSAHMSSNAIQR
modifications: Alexa Fluor 555 maleimide (donor) or Alexa Fluor 647 maleimide (acceptor) on C294 (E294C); 0.7-0.8 dye molecules per subunit
notes: intact CTE (residues 303-415) restored; Cdc12, S. cerevisiae mitotic septin, Cys-less variant; Cdc3, S. cerevisiae mitotic septin, Cys-less variant; Cdc10, S. cerevisiae mitotic septin, Cys-less variant; The same preparation was labelled separately with donor (AF555) or acceptor (AF647); both are written as this one molecule; also called Cdc11^AF555; Cdc11^AF647; source: E. coli NiCo21 (DE3), …

Legend:
[1] = target: T1, Shs1(E344C)-capped, otherwise Cys-less septin hetero-octamer (Shs1-Cdc12-Cdc3-Cdc10-Cdc10-Cdc3-Cdc12-Shs1) (S. cerevisiae, UniProt Q07657 1-551; P32468 1-407; P32457 1-520; P25342 1-322, C29V | C148S | E344C | C40A | C278S | C124V | C253V | C279V | C266S, Alexa Fluor 555 maleimide (donor) or Alexa Fluor 647 maleimide (acceptor) on C344 (E344C)); experiment: FRET or BRET; 25 nM donor (AF555)-labelled octamers titrated with acceptor (AF647)-labelled octamers, serial dilutions from 100 nM; 45 mM KCl, 50 mM Tris-HCl pH 8.0; room temperature, 1 h equilibration; triplicate; PCA and curve fit; apparent Kd of end-to-end association of rods; conditions: both partners purified
T1 construct: Cdc12, S. cerevisiae mitotic septin, Cys-less variant; Cdc3, S. cerevisiae mitotic septin, Cys-less variant; Cdc10, S. cerevisiae mitotic septin, Cys-less variant; Donor- and acceptor-labelled preparations are written as this one molecule; also called Shs1^AF555; Shs1^AF647; source: E. coli NiCo21 (DE3), subunits co-expressed, purified (IMAC, chitin-agarose flow-through, SEC), maleimide …
T1 sequence (Q07657 whole entry C29V/C148S/E344C, one chain of several): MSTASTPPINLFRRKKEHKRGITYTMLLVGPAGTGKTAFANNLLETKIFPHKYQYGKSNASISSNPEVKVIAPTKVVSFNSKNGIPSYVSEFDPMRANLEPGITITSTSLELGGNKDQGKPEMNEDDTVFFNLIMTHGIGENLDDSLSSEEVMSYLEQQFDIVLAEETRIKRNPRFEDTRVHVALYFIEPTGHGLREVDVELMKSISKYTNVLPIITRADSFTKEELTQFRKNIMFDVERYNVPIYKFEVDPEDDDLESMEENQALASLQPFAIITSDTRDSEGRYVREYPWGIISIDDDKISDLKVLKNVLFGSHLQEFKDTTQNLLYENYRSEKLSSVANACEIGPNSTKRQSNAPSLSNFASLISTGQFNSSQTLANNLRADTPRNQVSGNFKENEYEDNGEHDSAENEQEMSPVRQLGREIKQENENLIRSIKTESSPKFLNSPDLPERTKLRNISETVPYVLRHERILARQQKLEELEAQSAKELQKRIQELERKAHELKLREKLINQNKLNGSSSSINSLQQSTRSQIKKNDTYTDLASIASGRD

[2] = target: the molecule itself; experiment: as above
[3] = target: T2, Shs1(Δ2–18/Δα0 E344C)-capped, otherwise Cys-less septin hetero-octamer (S. cerevisiae, UniProt Q07657 1-551; P32468 1-407; P32457 1-520; P25342 1-322, Δ2–18 | C29V | C148S | E344C | C40A | C278S | C124V | C253V | C279V | C266S, Alexa Fluor 555 maleimide (donor) on C344 (E344C)); experiment: as above; conditions: both partners purified
T2 construct: Cdc12, S. cerevisiae mitotic septin, Cys-less variant; Cdc3, S. cerevisiae mitotic septin, Cys-less variant; Cdc10, S. cerevisiae mitotic septin, Cys-less variant; also called Shs1 Δα0^AF555; Shs1(Δα0) complexes; source: E. coli NiCo21 (DE3), subunits co-expressed, purified (IMAC, chitin-agarose flow-through, SEC), maleimide dye-labelled; not shown: His6, N-terminal, kept; copies: 2 + 2 + 2 + 2
T2 sequence (Q07657 other isoform, or with tags, fused parts or gaps with the stated changes): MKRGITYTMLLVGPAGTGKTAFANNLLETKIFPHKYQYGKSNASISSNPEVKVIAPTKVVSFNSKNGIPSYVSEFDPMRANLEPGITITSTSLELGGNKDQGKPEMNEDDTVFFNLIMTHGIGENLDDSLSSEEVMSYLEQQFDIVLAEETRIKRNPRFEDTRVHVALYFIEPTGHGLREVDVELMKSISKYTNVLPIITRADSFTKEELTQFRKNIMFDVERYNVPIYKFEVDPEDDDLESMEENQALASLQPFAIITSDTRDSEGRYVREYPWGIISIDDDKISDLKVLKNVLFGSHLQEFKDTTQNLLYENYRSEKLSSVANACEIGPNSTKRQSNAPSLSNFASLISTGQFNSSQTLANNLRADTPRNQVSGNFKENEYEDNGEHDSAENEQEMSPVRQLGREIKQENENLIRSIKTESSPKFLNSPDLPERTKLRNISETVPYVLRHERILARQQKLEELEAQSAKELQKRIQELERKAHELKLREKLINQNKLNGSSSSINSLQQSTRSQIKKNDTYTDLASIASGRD

[4] = target: T1, Shs1(E344C)-capped, otherwise Cys-less …; experiment: FRET or BRET; equimolar (1:1) donor- and acceptor-labelled octamers while varying ionic strength (KCl); PCA; EC50 of ionic strength and apparent Hill coefficient; conditions: both partners purified
[5] = target: the molecule itself; experiment: as above
[6] = target: T1, Shs1(E344C)-capped, otherwise Cys-less …; experiment: FRET or BRET; as a1 but 35 nM donor (AF555)-labelled octamers; 45 mM KCl, 50 mM Tris-HCl pH 8.0; room temperature; apparent Kd; conditions: both partners purified
[7] = target: the molecule itself; experiment: as above
[8] = target: T1, Shs1(E344C)-capped, otherwise Cys-less …; experiment: FRET or BRET; as a1 but 50 nM donor (AF555)-labelled octamers; 45 mM KCl, 50 mM Tris-HCl pH 8.0; room temperature; apparent Kd; conditions: both partners purified
[9] = target: the molecule itself; experiment: as above
[10] = target: the molecule itself; experiment: FRET or BRET; standard titrations of donor-labelled rods with acceptor-labelled rods in buffers of increasing KCl concentration (corrected FRET method); result at high ionic strength; apparent Kd
[11] = target: B1; experiment: FRET or BRET; 25 nM Cdc11^AF555 octamers assembled into filaments at low salt, titrated with Bni5^AF647 (maximum 500 nM); apparent Kd; conditions: both partners purified
[12] = target: B1; experiment: FRET or BRET; 15 nM Cdc11^AF555 octamers assembled into filaments at low salt, titrated with Bni5^AF647 (maximum 500 nM); apparent Kd; conditions: both partners purified

| Binder | Kd [1] [µM] | Kd [2] [µM] | Kd [3] [µM] | ionic strength (KCl) at EC50 of the FRET signal [4] [µM] | ionic strength (KCl) at EC50 of the FRET signal [5] [µM] | Kd [6] [µM] | Kd [7] [µM] | Kd [8] [µM] | Kd [9] [µM] | Kd [10] [µM] | Kd [11] [µM] | Kd [12] [µM] |
| --- | --- | --- | --- | --- | --- | --- | --- | --- | --- | --- | --- | --- |
| B1 | 0.0108 | 0.0202 | 0.0406 | 198000 | 181000 | 0.0213 | 0.0345 | 0.0275 | 0.0388 | > 0.1 | – | – |
| Bni5 (Bud neck-interacting protein 5), type II myosin-binding protein (natural protein, S. cerevisiae, UniProt P53890 1-448, looked up, Alexa Fluor 647 maleimide on the native cysteines Cys-144, Cys-266 and Cys-375 (2.7 dye molecules per protein), Bni5, S. cerevisiae; the BNI5 ORF cloned behind His8 and a human rhinovirus 3C protease site in pH3c-LIC; also called Bni5^AF647; acceptor dye-labeled Bni5; source: E. coli NiCo21 (DE3), purified (IMAC, chitin-agarose, SEC), maleimide dye-labelled) MGLDQDKIKKRLSQIEIDINQMNQMIDENLQLVEPAEDEAVEDNVKDTGVVDAVKVAETALFSGNDGADSNPGDSAQVEEHKTAQVHIPTENEANKSTDDPSQLSVTQPFIAKEQITHTAIAIGDSYNSFVANSAGNEKAKDSCTENKEDGTVNIDQNRGEADVEIIENNDDEWEDEKSDVEEGRVDKGTEENSEIESFKSPMPQNNTLGGENKLDAELVLDKFSSANKDLDIQPQTIVVGGDNEYNHESSRLADQTPHDDNSENCPNRSGGSTPLDSQTKIFIPKKNSKEDGTNINHFNSDGDGQKKMANFETRRPTNPFRVISVSSNSNSRNGSRKSSLNKYDSPVSSPITSASELGSIAKLEKRHDYLSMKCIKLQKEIDYLNKMNAQGSLSMEDGKRLHRAVVKLQEYLDKKTKEKYEVGVLLSRHLRKQIDRGENGQFWIGTK | – | – | – | – | – | – | – | – | – | – | 0.21 | 0.222 |

Source: PMC4653696 (The Journal of Biological Chemistry, 2015)
